Data set [1] has as its target T1, SlAAAD (Solanum lycopersicum, UniProt Q1KSC6).
T1 construct: gene AADC1A; recombinant from bacterial expression plasmid pTYB12 (IMPACT-CN)
T1 sequence (Q1KSC6 1-471): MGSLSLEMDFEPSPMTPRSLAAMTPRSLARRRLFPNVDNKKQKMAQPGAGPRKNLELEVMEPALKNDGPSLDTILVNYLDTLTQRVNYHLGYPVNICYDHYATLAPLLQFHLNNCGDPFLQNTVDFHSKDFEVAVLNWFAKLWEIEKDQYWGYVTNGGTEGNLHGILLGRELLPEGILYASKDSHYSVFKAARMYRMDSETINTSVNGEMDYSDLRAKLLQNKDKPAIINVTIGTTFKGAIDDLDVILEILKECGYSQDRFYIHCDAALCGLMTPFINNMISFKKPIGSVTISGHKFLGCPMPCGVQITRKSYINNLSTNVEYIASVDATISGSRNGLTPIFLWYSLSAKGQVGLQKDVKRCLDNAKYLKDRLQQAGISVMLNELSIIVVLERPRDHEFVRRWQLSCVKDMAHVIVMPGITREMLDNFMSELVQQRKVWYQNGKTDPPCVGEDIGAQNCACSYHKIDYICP
Put plainly: HPLC-EC decarboxylation assay. The class given is biochemical. The following applies: 5 mM substrate, 20 mM HEPES pH 7.5, 25°C, 10 min.

For data set [2], the target named is T2, AtSDC (Arabidopsis thaliana, UniProt Q9MA74).
T2 construct: gene SDC; recombinant from bacterial expression plasmid pTYB12 (IMPACT-CN)
T2 sequence (Q9MA74 1-482): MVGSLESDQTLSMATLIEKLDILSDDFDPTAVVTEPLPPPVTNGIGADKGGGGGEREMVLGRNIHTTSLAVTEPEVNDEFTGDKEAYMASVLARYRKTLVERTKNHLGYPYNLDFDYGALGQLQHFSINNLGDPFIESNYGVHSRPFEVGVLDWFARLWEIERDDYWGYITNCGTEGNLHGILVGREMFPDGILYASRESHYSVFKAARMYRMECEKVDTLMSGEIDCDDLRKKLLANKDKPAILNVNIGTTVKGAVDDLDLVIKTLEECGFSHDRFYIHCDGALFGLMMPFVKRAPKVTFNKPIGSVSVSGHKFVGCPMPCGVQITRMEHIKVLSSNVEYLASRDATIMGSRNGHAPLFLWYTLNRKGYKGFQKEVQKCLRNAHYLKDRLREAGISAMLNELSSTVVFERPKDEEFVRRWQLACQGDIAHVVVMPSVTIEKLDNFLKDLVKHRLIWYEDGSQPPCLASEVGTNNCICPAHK
Nature of the data set: HPLC-EC decarboxylation assay. The class given is biochemical. The following applies: 5 mM substrate, 20 mM HEPES pH 7.5, 25°C, 10 min.

Substrate in data set [3]: N[C@@H](Cc1c[nH]c2ccccc12)C(=O)O
Nature of the data set: peroxide assay (Pierce Quantitative Peroxide Assay Kit). The class given is biochemical, Cicer arietinum. As to conditions: 20 mM HEPES pH 7.5, 25°C, 5 min, hyperbolic regression. From the text:
(§1) peroxide assay (Pierce Quantitative Peroxide Assay Kit) on CaAAS

Substrate in data set [4]: CSCC[C@H](N)C(=O)O
Described as above. Format: biochemical, Cicer arietinum. The following applies: 20 mM HEPES pH 7.5, 25°C, 5 min, hyperbolic regression.
Text: as §1

Substrate in data set [5]: N[C@@H](Cc1ccccc1)C(=O)O
The description is as above. The following applies: 20 mM HEPES pH 7.5, 25°C, 5 min, hyperbolic regression. The class given is biochemical, Cicer arietinum.
Text: as §1

Substrate in data set [6]: CC(C)C[C@H](N)C(=O)O
Nature of the data set: purified protein. The following applies: 20 mM HEPES pH 7.5, 25°C, 5 min, hyperbolic regression.

Substrate in data set [7]: N[C@@H](Cc1c[nH]c2ccccc12)C(=O)O
Put plainly: peroxide assay (Pierce Quantitative Peroxide Assay Kit). Format: biochemical, Medicago truncatula. As to conditions: 20 mM HEPES pH 7.5, 25°C, 5 min, hyperbolic regression. From the text: (§2) peroxide assay (Pierce Quantitative Peroxide Assay Kit) on MtAAS

Substrate in data set [8]: CSCC[C@H](N)C(=O)O
The data set is described as above. The class given is biochemical, Medicago truncatula. As to conditions: 20 mM HEPES pH 7.5, 25°C, 5 min, hyperbolic regression.
Text: as §2

Substrate in data set [9]: N[C@@H](Cc1ccccc1)C(=O)O
The description is as above. The class given is biochemical, Medicago truncatula. The following applies: 20 mM HEPES pH 7.5, 25°C, 5 min, hyperbolic regression.
Text: as §2

The record followed here is article PMC4177580, “Diverse functional evolution of serine decarboxylases: identification of two novel acetaldehyde synthases that uses hydrophobic amino acids as substrates” (BMC Plant Biology, 2014).

What is called Km is the substrate concentration at which the rate is half of its maximum. By kcat is commonly meant the number of substrate molecules converted per active site and unit of time at saturation. Broadly, the kcat/Km is the second-order rate constant that governs catalysis at low substrate concentration.

For the molecule `N[C@@H](Cc1ccccc1)C(=O)O` [phenylalanine], in data set [1], the HPLC-EC decarboxylation assay entry is “SlAAAD decarboxylation assay demonstrated activity towards tyrosine, dopa, phenylalanine and tryptophan”.
As for `N[C@@H](Cc1ccc(O)cc1)C(=O)O` [tyrosine], the HPLC-EC decarboxylation assay entry in data set [1] was “SlAAAD decarboxylation assay demonstrated activity towards tyrosine, dopa, phenylalanine and tryptophan”.
Consider `N[C@@H](CO)C(=O)O` [serine], for which the HPLC-EC decarboxylation assay result in data set [2] is on record as “AtSDC only has activity towards serine”.

B1: CaAAS (Cicer arietinum) (protein)
chain: MGSLEGNNMLSMVVSNAKLAREEERQENINITNTNLTINQCIGETDANLKAIITHYVDTLTYSSLRNLGYPTNQDFNYDALASLFHFHLNNAGDPFVGSSFSLNSTKFEVGVLDWFAELWEIEKSDYWGYVTTGGTEGNLHGILVGREQFPDGILYTSQDSHYSIFKIARMYRMECVKVGSLLSGEIDCVELEASLLAHKDKPAIINLNIGTTMKGGIDDLDIVIQTLKKCGFTRDRFYIHCDGALFGIMLPFIKQAQRISFKKPIDSVTISGHKFLGCPSPCGVVITRLKYINELSRDVEIIASRDATITGSRCGHAPILLWYALKKKGLIGLKNEVHECIINARYLLDQLRDAGIGAMLNEFSNIVVFEKPLDDNFTRRWNLATKGNIAHVVVLMHVTKEMLDTFVREFIQKRSIWYKHGHFQPLCIANHVGSTNCVCSIHKLS
notes: recombinant from bacterial expression plasmid pTYB12 (IMPACT-CN)
As for B1, the Km in data set [3] came to 2800 ± 700 µM; in [4], 1620 ± 200 µM; in data set [5] it was 90 ± 10 µM; in data set [6] it was 4600 ± 400 µM. Moreover, the kcat in data set [3] was 0.187 ± 0.016 s⁻¹; in data set [4], 0.351 ± 0.012 s⁻¹; in [5], 0.595 ± 0.009 s⁻¹; in [6], 0.467 s⁻¹. The kcat/Km in [3] came out at 70 ± 100 M⁻¹ s⁻¹; in data set [4], 220 ± 10 M⁻¹ s⁻¹; in [5] it was 6600 ± 650 M⁻¹ s⁻¹; in [6], 100 M⁻¹ s⁻¹.

B2: MtAAS (Medicago truncatula) (protein)
chain: MAMTFIPDAELLPTVVVNAKLSREEKHDEENIIGLTNLDVTKSIGETDANLDAIIAHYAQTITKYNMRNLGYPTNQDFNYEALAPLLQFHLNNAGDPFLGSSFSLNSMAFEVSVLDWFAKLWEIEKNEYWGYVTTGGTEGNLHGILAGREQLPDGILYTSQDSHYSIAKIAKMYRMKCVKVDSLLSGEIDCVQLEASLLAHKDKPAIINLNIGTTLKGGIDDLDLVIQTLNKCGFTRDRFYIHCDGALFGIMLPFIKQAPRISFKKPIDSVTISGHKFLGCPSPCGVLITRLKYMNALSRDVDIIASRDATITGSRCGHAPIFLWYALKKRGLIGLENEVHECIMKAHYLLNLLRDAGIGAMLNKFSNIVVFERPLDDHFTRRWNLASNKNTAHVVVLKHVTVEMLDSFVREFTEKQSIWYKDEQFQPPCIANDVGSRNCACSIHNLSRNC
notes: as for B1
For B2, the Km was 1700 ± 300 µM in [7], 1900 ± 200 µM in data set [8], 20 ± 10 µM in data set [9] and 7600 ± 700 µM in [6]. Besides, the kcat in data set [7] is 0.125 ± 0.008 s⁻¹; in [8], 0.144 ± 0.006 s⁻¹; in data set [9], 0.358 ± 0.005 s⁻¹; in [6], 0.197 s⁻¹. Besides, the kcat/Km stood at 70 ± 10 M⁻¹ s⁻¹ in data set [7], 80 ± 10 M⁻¹ s⁻¹ in data set [8], 17900 ± 2290 M⁻¹ s⁻¹ in data set [9] and 30 M⁻¹ s⁻¹ in data set [6].
